According to patent US20230227545A1 (published 2023):

Key:
human IL-1β [1] = biological target: T1, human IL-1β (human, UniProt P01584 117-269); experiment: cell-based or functional assay
human IL-1β [2] = biological target: T1, human IL-1β; experiment: cell-based or functional assay; remark: listed apart in the source
cynomolgus IL-1β [3] = biological target: T2, cynomolgus IL-1β (cynomolgus macaque, UniProt P79182 117-268); experiment: cell-based or functional assay
T2 sequence (looked up): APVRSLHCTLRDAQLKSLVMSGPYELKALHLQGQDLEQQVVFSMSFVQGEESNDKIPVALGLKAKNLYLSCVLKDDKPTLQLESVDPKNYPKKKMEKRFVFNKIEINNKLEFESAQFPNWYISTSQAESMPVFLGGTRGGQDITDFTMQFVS

human IL-1β [4] = biological target: T1, human IL-1β; experiment: cell-based or functional assay; remark: listed apart in the source
pig IL-1β = biological target: T3, pig IL-1β (pig, UniProt P26889 115-267); experiment: SPR, Biacore 8K, mAb captured on anti-human Fc chip, soluble IL-1β as analyte
T3 construct: also called pig IL-β
T3 sequence (looked up): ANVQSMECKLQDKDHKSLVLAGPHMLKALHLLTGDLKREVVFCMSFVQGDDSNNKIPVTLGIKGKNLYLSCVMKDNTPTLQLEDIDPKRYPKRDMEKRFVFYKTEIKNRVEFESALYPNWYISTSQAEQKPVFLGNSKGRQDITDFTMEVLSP
Method: (§1) Affinity assessment of 05H21A, 15N14A, and 08F17A against human IL-1β was performed by Surface Plasmon Resonance (SPR) using a Biacore 8k. Cross-reactivity of the same antibody panel was also assessed against cyno, mouse, rat and pig IL-1β.
(§2) SPR is a label-free technique to study the strength of an interaction between two binding partners by measuring the change in mass upon complex formation and dissociation. Briefly, antibodies were immobilized on a sensor chip which was coupled with goat anti-human Fc (GAH-Fc C1 sensor chip). Soluble IL-1β was flowed over the immobilized antibody and association/dissociation responses were monitored. Kinetic information (on-rate and off-rate constants) were extracted by fitting sensorgrams to the 1:1 Langmuir model. Binding affinity (KD) were reported as the ratio of rate constants (koff/kₒₙ).

cynomolgus IL-1β [5] = biological target: T2, cynomolgus IL-1β; experiment: SPR, Biacore 8K, mAb captured on goat anti-human Fc C1 chip, soluble IL-1β as analyte, 1:1 Langmuir fit
Method: as §1, §2

human IL-1β [6] = biological target: T1, human IL-1β; experiment: as above
Method: as §1, §2

B1: 05H21A (antibody, human IgG1, lambda, V domains shown)
VH: QVTLRESGPALVKPTQTLTLTCTFSGFSLSTSGMWVSWIRQPPGKALEWLALIDWGDDKYYTTSLKTRLTISKDTSKNQVVLTMTNMDPVDTATYYCARMREGSRAFDIWGQGTVVTVSS
VL: QSVLTQPPSVSEAPRQRVTISCSGSSSNIGDNAVNWYQQLPGKAPKLLIYNDDLLSSGVSDRFSGSKSGTSASLAISGLQSEDEADYYCAAWDDSLNGPVFGGGTKLTVLG
notes: Lambda light chain; also called 05H21A (anti-IL-1β) mAb [IgG1: YTE]
- IC30, inhibition of rhIL-1β-induced CXCL5 release, human whole blood (5 donors) (human IL-1β [1]): 0.4 nM
- IC30, inhibition of rhIL-1β-induced G-CSF release, human whole blood (5 donors) (human IL-1β [1]): 0.364 nM
- IC30, inhibition of rhIL-1β-induced IL-6 release, human whole blood (5 donors) (human IL-1β [1]): 0.393 nM
- IC50, inhibition of rhIL-1β-induced CXCL5 release, human whole blood (5 donors) (human IL-1β [1]): 0.622 nM
- IC50, inhibition of rhIL-1β-induced G-CSF release, human whole blood (5 donors) (human IL-1β [1]): 0.632 nM
- IC50, inhibition of rhIL-1β-induced IL-6 release, human whole blood (5 donors) (human IL-1β [1]): 0.631 nM
- IC90, inhibition of rhIL-1β-induced CXCL5 release, human whole blood (5 donors) (human IL-1β [1]): 1.95 nM
- IC90, inhibition of rhIL-1β-induced G-CSF release, human whole blood (5 donors) (human IL-1β [1]): 2.64 nM
- IC90, inhibition of rhIL-1β-induced IL-6 release, human whole blood (5 donors) (human IL-1β [1]): 2.16 nM
- IC30, inhibition of rhIL-1β-induced cytokine release, NHDF donor 29114 (human IL-1β [2]): 0.039 nM
- IC30, inhibition of rhIL-1β-induced cytokine release, NHLF donor 34325 (human IL-1β [2]): 0.071 nM
- IC30, inhibition of rhIL-1β-induced cytokine release, NHLF donor 35234 (human IL-1β [2]): 0.042 nM
- IC50, inhibition of rhIL-1β-induced cytokine release, NHDF donor 29114 (human IL-1β [2]): 0.078 nM
- IC50, inhibition of rhIL-1β-induced cytokine release, NHLF donor 34325 (human IL-1β [2]): 0.167 nM
- IC50, inhibition of rhIL-1β-induced cytokine release, NHLF donor 35234 (human IL-1β [2]): 0.098 nM
- IC90, inhibition of rhIL-1β-induced cytokine release, NHDF donor 29114 (human IL-1β [2]): 0.49 nM
- IC90, inhibition of rhIL-1β-induced cytokine release, NHLF donor 34325 (human IL-1β [2]): 1.51 nM
- IC90, inhibition of rhIL-1β-induced cytokine release, NHLF donor 35234 (human IL-1β [2]): 0.89 nM
- IC30, inhibition of G-CSF release, cynomolgus lung fibroblasts (CLF), 15 pM rcynoIL-1β (cynomolgus IL-1β [3]): 0.195 nM
- IC30, inhibition of IL-6 release, cynomolgus dermal fibroblasts (CDF), 5 pM rcynoIL-1β (cynomolgus IL-1β [3]): 0.089 nM
- IC30, inhibition of IL-6 release, cynomolgus lung fibroblasts (CLF), 15 pM rcynoIL-1β (cynomolgus IL-1β [3]): 0.214 nM
- IC50, inhibition of G-CSF release, cynomolgus dermal fibroblasts (CDF), 5 pM rcynoIL-1β (cynomolgus IL-1β [3]): 0.059 nM
- IC50, inhibition of G-CSF release, cynomolgus lung fibroblasts (CLF), 15 pM rcynoIL-1β (cynomolgus IL-1β [3]): 0.27 nM
- IC50, inhibition of IL-6 release, cynomolgus dermal fibroblasts (CDF), 5 pM rcynoIL-1β (cynomolgus IL-1β [3]): 0.175 nM
- IC50, inhibition of IL-6 release, cynomolgus lung fibroblasts (CLF), 15 pM rcynoIL-1β (cynomolgus IL-1β [3]): 0.306 nM
- IC90, inhibition of G-CSF release, cynomolgus lung fibroblasts (CLF), 15 pM rcynoIL-1β (cynomolgus IL-1β [3]): 0.63 nM
- IC90, inhibition of IL-6 release, cynomolgus dermal fibroblasts (CDF), 5 pM rcynoIL-1β (cynomolgus IL-1β [3]): 0.997 nM
- IC90, inhibition of IL-6 release, cynomolgus lung fibroblasts (CLF), 15 pM rcynoIL-1β (cynomolgus IL-1β [3]): 0.779 nM
- IC30, inhibition of IL-6 release, human PBMCs (n=5 donors), 10 pM rhIL-1β (human IL-1β [4]): 0.043 nM
- IC30, inhibition of IL-6 release, human PBMCs (n=5 donors), 30 pM rhIL-1β (human IL-1β [4]): 0.104 nM
- IC50, inhibition of IL-6 release, human PBMCs (n=5 donors), 10 pM rhIL-1β (human IL-1β [4]): 0.07 nM
- IC50, inhibition of IL-6 release, human PBMCs (n=5 donors), 30 pM rhIL-1β (human IL-1β [4]): 0.164 nM
- IC90, inhibition of IL-6 release, human PBMCs (n=5 donors), 10 pM rhIL-1β (human IL-1β [4]): 0.244 nM
- IC90, inhibition of IL-6 release, human PBMCs (n=5 donors), 30 pM rhIL-1β (human IL-1β [4]): 0.533 nM
- binding result (pig IL-1β): no binding
- Kd (cynomolgus IL-1β [5]): 0.022 nM
- koff (cynomolgus IL-1β [5]): 0.000348 s⁻¹
- kon (cynomolgus IL-1β [5]): 1.58e+07 M⁻¹ s⁻¹
- Kd (human IL-1β [6]): 0.0197 nM
- koff (human IL-1β [6]): 0.000422 s⁻¹
- kon (human IL-1β [6]): 2.14e+07 M⁻¹ s⁻¹
